Laboratory results from patent US20260209293A1 (Novo Nordisk, published 2026).
Blank lines part the entries; values can stand above or below the binder they belong to. *1 amine or outer side, *2 acyl side, *3 side chain or, on linkers, in order; H or OH if unused. The star is where a group is joined. C18 diacid = O=C(O)CCCCCCCCCCCCCCCCC(=O)*; γGlu = O=C(O)[C@H](CCC(=O)[*:2])N[*:1]

What was measured:
[1] = target: T1, human amylin-3(a) receptor (human, UniProt P30988 25-474; O60896 24-148); assay: cell-based or functional assay
T1 sequence (looked up) 1: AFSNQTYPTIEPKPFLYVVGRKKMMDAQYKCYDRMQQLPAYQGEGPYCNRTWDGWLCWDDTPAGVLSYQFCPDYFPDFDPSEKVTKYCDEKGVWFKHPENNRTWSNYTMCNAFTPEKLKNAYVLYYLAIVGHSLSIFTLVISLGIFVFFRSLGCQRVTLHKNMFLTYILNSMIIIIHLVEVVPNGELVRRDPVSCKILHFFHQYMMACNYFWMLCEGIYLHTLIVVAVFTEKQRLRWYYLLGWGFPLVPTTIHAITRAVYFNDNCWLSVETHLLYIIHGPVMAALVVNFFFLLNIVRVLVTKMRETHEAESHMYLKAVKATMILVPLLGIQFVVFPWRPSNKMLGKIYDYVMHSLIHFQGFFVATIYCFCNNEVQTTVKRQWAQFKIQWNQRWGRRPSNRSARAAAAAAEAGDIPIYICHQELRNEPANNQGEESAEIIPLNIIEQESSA
T1 sequence (looked up) 2: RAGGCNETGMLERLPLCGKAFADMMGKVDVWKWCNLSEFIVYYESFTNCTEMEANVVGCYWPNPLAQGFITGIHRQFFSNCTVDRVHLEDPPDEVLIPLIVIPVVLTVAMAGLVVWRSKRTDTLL

[2] = target: T2, human calcitonin receptor (a) (human, UniProt P30988 25-474); assay: cell-based or functional assay
T2 sequence (looked up): T1 sequence (looked up) 1

B1: N^1-[(4S)-4-carboxy-4-(17-carboxyheptadecanoylamino)butanoyl]-[Ala1,Ser2,His3,Leu4,Ser5,Ala7,Gln8,Glu14,His17,Pro25,Pro28,Pro29,Asp31,Glu35,Pro37],des-(19-22)-h … (peptide)
peptide: {C18 diacid-γGlu}-ASHLSTAQTQRLAEFLHHFGPILPPTDVGSETP-NH2
SMILES: CC[C@H](C)[C@H](NC(=O)[C@@H]1CCCN1C(=O)CNC(=O)[C@H](Cc1ccccc1)NC(=O)[C@H](Cc1c[nH]cn1)NC(=O)[C@H](Cc1c[nH]cn1)NC(=O)[C@H](CC(C)C)NC(=O)[C@H](Cc1ccccc1)NC(=O)[C@H](CCC(=O)O)NC(=O)[C@H](C)NC(=O)[C@H](CC(C)C)NC(=O)[C@H](CCCNC(=N)N)NC(=O)[C@H](CCC(N)=O)NC(=O)[C@@H](NC(=O)[C@H](CCC(N)=O)NC(=O)[C@H](C)NC(=O)[C@@H](NC(=O)[C@H](CO)NC(=O)[C@H](CC(C)C)NC(=O)[C@H](Cc1c[nH]cn1)NC(=O)[C@H](CO)NC(=O)[C@H](C)NC(=O)CC[C@H](NC(=O)CCCCCCCCCCCCCCCCC(=O)O)C(=O)O)[C@@H](C)O)[C@@H](C)O)C(=O)N[C@@H](CC(C)C)C(=O)N1CCC[C@H]1C(=O)N1CCC[C@H]1C(=O)N[C@H](C(=O)N[C@@H](CC(=O)O)C(=O)N[C@H](C(=O)NCC(=O)N[C@@H](CO)C(=O)N[C@@H](CCC(=O)O)C(=O)N[C@H](C(=O)N1CCC[C@H]1C(N)=O)[C@@H](C)O)C(C)C)[C@@H](C)O
- hAmyR3 potency, EC50 (pM); CRE-luciferase reporter in BHK cells [1]: 2.06 pM
- hCalcR potency, EC50 (pM); CRE-luciferase reporter in BHK cells [2]: 1.72 pM

B2: N^1-[(4S)-4-carboxy-4-[[(4S)-4-carboxy-4-(17-carboxyheptadecanoylamino)butanoyl]amino]butanoyl]-[Ala1,Gly2,Ser3,Leu4,Ser5,Ala7,Gln8,Glu14,His17,Pro25,Pro28,Pro2 … (peptide)
peptide: {C18 diacid-γGlu-γGlu}-AGSLSTAQTQRLAEFLHHFGPILPPTDVGSETP-NH2
SMILES: CC[C@H](C)[C@H](NC(=O)[C@@H]1CCCN1C(=O)CNC(=O)[C@H](Cc1ccccc1)NC(=O)[C@H](Cc1c[nH]cn1)NC(=O)[C@H](Cc1c[nH]cn1)NC(=O)[C@H](CC(C)C)NC(=O)[C@H](Cc1ccccc1)NC(=O)[C@H](CCC(=O)O)NC(=O)[C@H](C)NC(=O)[C@H](CC(C)C)NC(=O)[C@H](CCCNC(=N)N)NC(=O)[C@H](CCC(N)=O)NC(=O)[C@@H](NC(=O)[C@H](CCC(N)=O)NC(=O)[C@H](C)NC(=O)[C@@H](NC(=O)[C@H](CO)NC(=O)[C@H](CC(C)C)NC(=O)[C@H](CO)NC(=O)CNC(=O)[C@H](C)NC(=O)CC[C@H](NC(=O)CC[C@H](NC(=O)CCCCCCCCCCCCCCCCC(=O)O)C(=O)O)C(=O)O)[C@@H](C)O)[C@@H](C)O)C(=O)N[C@@H](CC(C)C)C(=O)N1CCC[C@H]1C(=O)N1CCC[C@H]1C(=O)N[C@H](C(=O)N[C@@H](CC(=O)O)C(=O)N[C@H](C(=O)NCC(=O)N[C@@H](CO)C(=O)N[C@@H](CCC(=O)O)C(=O)N[C@H](C(=O)N1CCC[C@H]1C(N)=O)[C@@H](C)O)C(C)C)[C@@H](C)O
- hAmyR3 potency, EC50 (pM); CRE-luciferase reporter in BHK cells [1]: 2.37 pM
- hCalcR potency, EC50 (pM); CRE-luciferase reporter in BHK cells [2]: 2.07 pM

The next lines start with the values.

- hAmyR3 potency, EC50 (pM); CRE-luciferase reporter in BHK cells [1]: 5.71 pM
- hCalcR potency, EC50 (pM); CRE-luciferase reporter in BHK cells [2]: 15.7 pM
B3: N^1-[(4S)-4-carboxy-4-[[(4S)-4-carboxy-4-(17-carboxyheptadecanoylamino)butanoyl]amino]butanoyl]-[Ala1,Ser2, His3, Leu4,Ser5,Ala7,Gln8,Glu14, His17, Pro25, … (peptide)
peptide: {C18 diacid-γGlu-γGlu}-ASHLSTAQTQRLAEFLHHFGPILPPTDVGSETY-NH2
SMILES: CC[C@H](C)[C@H](NC(=O)[C@@H]1CCCN1C(=O)CNC(=O)[C@H](Cc1ccccc1)NC(=O)[C@H](Cc1c[nH]cn1)NC(=O)[C@H](Cc1c[nH]cn1)NC(=O)[C@H](CC(C)C)NC(=O)[C@H](Cc1ccccc1)NC(=O)[C@H](CCC(=O)O)NC(=O)[C@H](C)NC(=O)[C@H](CC(C)C)NC(=O)[C@H](CCCNC(=N)N)NC(=O)[C@H](CCC(N)=O)NC(=O)[C@@H](NC(=O)[C@H](CCC(N)=O)NC(=O)[C@H](C)NC(=O)[C@@H](NC(=O)[C@H](CO)NC(=O)[C@H](CC(C)C)NC(=O)[C@H](Cc1c[nH]cn1)NC(=O)[C@H](CO)NC(=O)[C@H](C)NC(=O)CC[C@H](NC(=O)CC[C@H](NC(=O)CCCCCCCCCCCCCCCCC(=O)O)C(=O)O)C(=O)O)[C@@H](C)O)[C@@H](C)O)C(=O)N[C@@H](CC(C)C)C(=O)N1CCC[C@H]1C(=O)N1CCC[C@H]1C(=O)N[C@H](C(=O)N[C@@H](CC(=O)O)C(=O)N[C@H](C(=O)NCC(=O)N[C@@H](CO)C(=O)N[C@@H](CCC(=O)O)C(=O)N[C@H](C(=O)N[C@@H](Cc1ccc(O)cc1)C(N)=O)[C@@H](C)O)C(C)C)[C@@H](C)O

- hAmyR3 potency, EC50 (pM); CRE-luciferase reporter in BHK cells [1]: 2.68 pM
- hCalcR potency, EC50 (pM); CRE-luciferase reporter in BHK cells [2]: 1.78 pM
B4: N^1-[(4S)-4-carboxy-4-(17-carboxyheptadecanoylamino)butanoyl]-[Ala1,Ser2,His3,Leu4,Ser5,Ala7,Gln8,Glu14,His17,Glu21,Pro22,Pro27,Glu31,Pro34,Glu35,Pro37]-human … (peptide)
peptide: {C18 diacid-γGlu}-ASHLSTAQTQRLAEFLHHSSEPFGAIPSSTEVGPETP-NH2
SMILES: CC[C@H](C)[C@H](NC(=O)[C@H](C)NC(=O)CNC(=O)[C@H](Cc1ccccc1)NC(=O)[C@@H]1CCCN1C(=O)[C@H](CCC(=O)O)NC(=O)[C@H](CO)NC(=O)[C@H](CO)NC(=O)[C@H](Cc1c[nH]cn1)NC(=O)[C@H](Cc1c[nH]cn1)NC(=O)[C@H](CC(C)C)NC(=O)[C@H](Cc1ccccc1)NC(=O)[C@H](CCC(=O)O)NC(=O)[C@H](C)NC(=O)[C@H](CC(C)C)NC(=O)[C@H](CCCNC(=N)N)NC(=O)[C@H](CCC(N)=O)NC(=O)[C@@H](NC(=O)[C@H](CCC(N)=O)NC(=O)[C@H](C)NC(=O)[C@@H](NC(=O)[C@H](CO)NC(=O)[C@H](CC(C)C)NC(=O)[C@H](Cc1c[nH]cn1)NC(=O)[C@H](CO)NC(=O)[C@H](C)NC(=O)CC[C@H](NC(=O)CCCCCCCCCCCCCCCCC(=O)O)C(=O)O)[C@@H](C)O)[C@@H](C)O)C(=O)N1CCC[C@H]1C(=O)N[C@@H](CO)C(=O)N[C@@H](CO)C(=O)N[C@H](C(=O)N[C@@H](CCC(=O)O)C(=O)N[C@H](C(=O)NCC(=O)N1CCC[C@H]1C(=O)N[C@@H](CCC(=O)O)C(=O)N[C@H](C(=O)N1CCC[C@H]1C(N)=O)[C@@H](C)O)C(C)C)[C@@H](C)O
